The series concerns the target FLAG-KLF9 (UniProt O35739 SEQ:1-244). As to the kind of experiment: EMSA; purified FLAG-KLF9 with 32-bp fragment, similar to adipocyte nuclear extract. The following applies: tags: FLAG; label: 32P. As to the method: […] were prepared from 293T cells, 3T3L1 adipocytes, or white adipose tissue according to a reported method (Almoguera, C. et al., J. Biol. Chem. 277, 43866-43872 (2002)). Double-stranded oligonucleotides used for the electrophoretic mobility shift assay were prepared by annealing both strands. Labeled probes (3,000 to 10,000 cpm) and the nuclear extracts were mixed in a reaction solution (20 μL: 10 mM Tris-HCl (pH7.6), 50 mM KCl, 0.05 mM EDTA, 2.5 mM MgCl₂, 8.5% glycerol, 1 mM dithiothreitol, 0.5 μg/mL of poly(dI-dC), 0.1% Triton X, and 1 mg/mL of skim milk), and incubated for 30 minutes on ice. The DNA-protein complexes were fractionated on a 4.6% polyacrylamide gel at 140 V for 1 hour at 4° C. The Gel was dried and exposed using a BAS2000 filter with BAStation software (Fuji Photo Film).

FLAG-KLF9, sequence (O35739 other isoform, or with tags, fused parts or gaps): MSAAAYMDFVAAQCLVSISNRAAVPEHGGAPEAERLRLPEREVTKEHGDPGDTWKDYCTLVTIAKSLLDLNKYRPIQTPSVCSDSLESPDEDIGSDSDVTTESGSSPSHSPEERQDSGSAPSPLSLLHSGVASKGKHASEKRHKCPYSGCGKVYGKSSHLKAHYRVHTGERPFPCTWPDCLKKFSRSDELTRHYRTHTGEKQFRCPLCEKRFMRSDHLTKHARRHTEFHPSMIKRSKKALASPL

B1: adiponectin promoter -188/-157 32-bp element (dsDNA)
DNA 1: GAAGCCCAAGCTGGGTTGTACCAGGTTCCCTA
DNA 2: TAGGGAACCTGGTACAACCCAGCTTGGGCTTC
For the molecule B1, the binding result is listed as “binds”.

The values are drawn from US20070203061, “Adiponectin expression-inducing agents and uses thereof” (TOUDAI TLO, LTD, published 2007).
